Test results from article PMC3448977 (Biochemistry, 2012).

Tests used:
BMP-9 (Homo sapiens) = BMP-9 (Homo sapiens) (UniProt Q9UK05); conditions: cited from earlier work
Human BMP-9 = molecular target: T1, Human BMP-9 (human, UniProt Q9UK05 320-429); assay: SPR
T1 sequence (looked up): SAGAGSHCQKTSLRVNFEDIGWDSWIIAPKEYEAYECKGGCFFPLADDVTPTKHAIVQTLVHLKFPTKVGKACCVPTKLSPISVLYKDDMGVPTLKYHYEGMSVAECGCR

Fc-Alk1 ECD (from UniProt P37023)
Kd (BMP-9 (Homo sapiens)): 0.0025 µM

B1: Alk1 extracellular domain with Arg53-Glu54-Leu55 swapped for Asp-Phe-Gln of Alk3 (Alk1-DFQ) (domain or fragment, human)
chain: GSHMDPVKPSRGPLVTCTCESPHCKGPTCRGAWCTVVLVREEGRHPQEHRGCGNLHDFQCRGRPTEFVNHYCCDSHLCNHNVSLVLEATQPPSEQPGTDGQ
Kd (Human BMP-9): 5.7 µM
